Test results reported in paper PMC7060279.

Assays:
integrin αvβ3 protein [1] = target: integrin αvβ3 protein (UniProt P06756); test: SPR; Biacore T-200; TLR2, TLR4 and integrin αvβ3 immobilised on a CM5 chip by amine coupling; CCN1 as analyte at 25 µl per min, 25 °C, phosphate buffer with 350 mM NaCl, 0.5 mM CaCl2, 0.5 mM MgCl2, 10 µg per ml BSA; global fit to 1:1 Langmuir model, KD = kd/ka
integrin αvβ3 protein [2] = target: integrin αvβ3 protein (UniProt P06756)

Sequence of integrin αvβ3 protein (P06756 31-1048, chain 1 of 2): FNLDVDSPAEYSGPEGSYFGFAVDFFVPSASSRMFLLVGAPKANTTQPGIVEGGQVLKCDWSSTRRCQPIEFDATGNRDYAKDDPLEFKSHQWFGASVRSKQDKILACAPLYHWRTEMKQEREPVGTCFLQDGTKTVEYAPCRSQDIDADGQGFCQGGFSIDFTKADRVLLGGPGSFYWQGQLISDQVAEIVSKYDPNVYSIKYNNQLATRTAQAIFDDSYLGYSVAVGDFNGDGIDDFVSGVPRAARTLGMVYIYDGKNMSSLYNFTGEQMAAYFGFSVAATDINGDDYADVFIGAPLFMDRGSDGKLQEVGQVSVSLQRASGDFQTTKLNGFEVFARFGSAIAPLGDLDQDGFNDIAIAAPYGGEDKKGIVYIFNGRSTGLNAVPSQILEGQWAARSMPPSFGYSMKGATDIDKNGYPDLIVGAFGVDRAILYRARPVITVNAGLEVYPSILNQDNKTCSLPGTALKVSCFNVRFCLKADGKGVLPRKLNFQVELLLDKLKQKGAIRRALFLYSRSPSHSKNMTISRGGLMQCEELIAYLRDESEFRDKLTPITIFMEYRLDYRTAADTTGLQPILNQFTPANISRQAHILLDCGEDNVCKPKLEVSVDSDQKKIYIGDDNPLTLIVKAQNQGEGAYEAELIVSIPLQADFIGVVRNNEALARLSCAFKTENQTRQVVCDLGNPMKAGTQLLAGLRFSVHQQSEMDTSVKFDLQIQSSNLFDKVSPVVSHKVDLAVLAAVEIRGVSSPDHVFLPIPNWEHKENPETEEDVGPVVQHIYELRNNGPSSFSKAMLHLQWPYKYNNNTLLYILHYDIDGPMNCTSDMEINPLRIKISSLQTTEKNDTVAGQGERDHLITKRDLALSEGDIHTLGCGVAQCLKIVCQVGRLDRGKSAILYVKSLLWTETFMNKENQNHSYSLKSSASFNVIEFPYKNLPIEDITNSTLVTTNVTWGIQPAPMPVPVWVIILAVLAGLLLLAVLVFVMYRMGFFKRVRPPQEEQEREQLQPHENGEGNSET
Sequence of integrin αvβ3 protein (P05106 27-718, chain 2 of 2, further chain): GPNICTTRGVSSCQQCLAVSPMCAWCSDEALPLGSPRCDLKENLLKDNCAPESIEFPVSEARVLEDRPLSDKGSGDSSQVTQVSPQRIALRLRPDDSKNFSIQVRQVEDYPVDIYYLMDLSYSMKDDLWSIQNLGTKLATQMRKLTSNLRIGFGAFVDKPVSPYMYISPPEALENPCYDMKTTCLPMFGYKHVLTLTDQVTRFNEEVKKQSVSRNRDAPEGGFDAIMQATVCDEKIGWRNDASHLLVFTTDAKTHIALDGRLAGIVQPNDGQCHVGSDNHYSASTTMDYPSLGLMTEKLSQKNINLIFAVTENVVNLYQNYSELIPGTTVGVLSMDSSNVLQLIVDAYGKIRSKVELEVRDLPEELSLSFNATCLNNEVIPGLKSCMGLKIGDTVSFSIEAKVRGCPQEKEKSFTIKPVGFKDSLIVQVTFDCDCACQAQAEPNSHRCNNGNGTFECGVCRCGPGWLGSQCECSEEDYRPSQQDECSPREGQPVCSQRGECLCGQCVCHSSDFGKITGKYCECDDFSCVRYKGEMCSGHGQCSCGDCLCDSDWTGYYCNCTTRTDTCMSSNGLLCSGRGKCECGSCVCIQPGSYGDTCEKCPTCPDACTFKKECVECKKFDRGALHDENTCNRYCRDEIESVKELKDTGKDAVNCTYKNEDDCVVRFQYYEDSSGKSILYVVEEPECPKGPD

Kd (integrin αvβ3 protein [1]): 202 nM
phagocytosis of S. aureus bioparticles by BMDMs pretreated with CCN1 (2 µg per ml); obliterated by cilengitide (1 µM); also enhanced in BM-PMNs and THP.1 macrophages (integrin αvβ3 protein [2]): 5 fold
B1: CCN1-WT (recombinant matricellular protein CCN1) (natural protein)
chain: TCPAACHCPLEAPKCAPGVGLVRDGCGCCKVCAKQLNEDCSKTQPCDHTKGLECNFGASSTALKGICRAQSEGRPCEYNSRIYQNGESFQPNCKHQCTCIDGAVGCIPLCPQELSLPNLGCPNPRLVKVSGQCCEEWVCDEDSIKDSLDDQDDLLGLDASEVELTRNNELIAIGKGSSLKRLPVFGTEPRVLFNPLHAHGQKCIVQTTSWSQCSKSCGTGISTRVTNDNPECRLVKETRICEVRPCGQPVYSSLKKGKKCSKTKKSPEPVRFTYAGCSSVKKYRPKYCGSCVDGRCCTPLQTRTVKMRFRCEDGEMFSKNVMMIQSCKCNYNCPHPNEASFRLYSLFNDIHKFRD
